Key:
Fc tagged human PD-L1 = molecular target: T1, Fc tagged human PD-L1 (human, UniProt Q9NZQ7 19-238, limits assumed); test: SPR (Biacore T200), Fc tagged PDL1 captured by anti-human Fc, molecule as analyte 0.18-45 nM
T1 construct: not shown: Fc tag
Protocol: (§1) Affinity to PDL1 was determined by SPR measurements using a Biacore T200 device (GE Healthcare). In this experiment, Fc tagged PDL1 from different species was captured using the Human Antibody Capture kit from GE Healthcare (cat. BR-1008-39). After each analyte injection cycle, the anti-human Fc-specific IgG was regenerated and new antigen was captured. For all formats, the multispecific molecules were injected as analyte using a dose response multi-cycle kinetic assay with concentrations of the analyte ranging from 0.18 to 45 nM (two-fold dilutions steps) diluted in running buffer. Association and dissociation time were set to 300 s and 720 s, respectively. The apparent dissociation (kd) and association (kₐ) rate constants and the apparent dissociation equilibrium constant (KD) were calculated using one-to-one Langmuir binding model. Affinity to CD137 of the different species was determined using the identical setup as for PDL1 with the exception that CD137-Fc chimeric proteins from different species were captured by the immobilized antibody.

[1] = molecular target: T2, Fc tagged human CD137 (R&D Systems, cat. 838-4B-100) (human, UniProt Q07011 24-186); test: SPR (Biacore T200), CD137-Fc captured by anti-human Fc, molecule as analyte 0.18-45 nM
T2 construct: Bought Fc chimera; also called CD137 Fc chimera; human CD137 (tagged with Fc); not shown: Fc tag of the bought chimera
Protocol: as §1

[2] = molecular target: human CD137 expressed on Jurkat cells (human, UniProt Q07011 24-255); test: cell-based or functional assay
[3] = molecular target: T2, Fc tagged human CD137 (R&D Systems, …); test: SPR (Biacore T200), Fc tagged human CD137 captured by anti-human Fc, scFv as analyte
Protocol: In this experiment, Fc tagged human CD137 (R&D Systems, cat. 838-4B-100) was captured using the Human Antibody Capture kit from GE healthcare (cat. BR-1008-39). After each analyte injection cycle, the anti-human Fc-specific IgG was regenerated and new antigen was captured. The scFvs were injected as analyte using a dose response multi-cycle kinetic assay over the captured CD137 with concentrations of the analyte ranging from 0.19 to 45 nM (three-fold dilutions steps) diluted in running buffer. Association and dissociation time were set to 300 s and 720 s, respectively. The obtained sensorgrams were fitted using the 1:1 binding model.

B1: PRO885 (bispecific antibody)
chain: DIQMTQSPSSLSASVGDRVTITCQASQSINDYLAWYQQKPGKAPKLLIYKASTLASGVPSRFSGSGSGTDFTLTISSLQPEDFATYYCQQGYIITDIDNVFGTGTKVTVLGGGGGSQVQLQESGPGLVKPSETLSLTCKVSGFSFSNSYWICWIRQPPGKGLEWIGCTFVGSSDSTYYANWAKGRVTISVDSSKNQFSLKLSSVTAADTAVYYCARHPSDAVYGYANNLWGQGTLVTVSSGGGGSGGGGSGGGGSGGGGSIQMTQSPSSLSASVGDRVTITCQASQSINNVLAWYQQKPGKAPKLLIYRASTLASGVPSRFSGSGSGTDFTLTISSLQPEDFATYYCQSSYGNYGDFGTGTKVTVLGGGGGSQVQLQESGPGLVKPSETLSLTCKVSGFSFSSGYDMCWIRQPPGKGLEWIGCVVAGSVDITYYASWAKGRVTISVDSSKNQFSLKLSSVTAADTAVYYCARKDAYSDAFNLWGQGTLVTVSS
- Kd (Fc tagged human PD-L1): 0.065 nM
- Kd [1]: 3.2 nM

B2: PRO1481 (other)
chain: DIQMTQSPASLSASVGDRVTITCQASQSIGTYLAWYQQKPGKPPKLLIYRAFILASGVPSRFSGSGSGTDFTLTISSLQPEDFATYYCQSNFYSDSTTIGPNAFGTGTKVTVLGGGGGSESQLVESGGGLVQPGGSLRLSCAASGFSFSANYYPCWVRQAPGKGLEWIGCIYGGSSDITYDANWTKGRFTISRDNSKNTVYLQMNSLRAEDTAVYFCARSAWYSGWGGDLWGPGTLVTVSSGGGGSGGGGSGGGGSGGGGSFQLTQSPSSLSASVGDRVTITCQASQSISNRLAWYQQKPGKPPKLLIYSASTLASGVPSRFSGSGSGTDFTLTISSLQPEDFATYYCQSTYYGNDGNAFGTGTKVTVLGGGGGSEVQLVESGGGLVQPGGSLRLSCAASGFSFNSDYWIYWVRQAPGKGLEWIASIYGGSSGNTQYASWAQGRFTISRDNSKNTVYLQMNSLRAEDTAVYFCARGYVDYGGATDLWGQGTLVTVSSGGGGSGGGGSIQMTQSPSSLSASVGDRVTITCQSSESVYSNNQLSWYQQKPGQPPKLLIYDASDLASGVPSRFSGSGSGTDFTLTISSLQPEDFATYYCAGGFSSSSDTAFGGGTKLTVLGGGGGSGGGGSGGGGSGGGGSEVQLVESGGGLVQPGGSLRLSCAASGFSLSSNAMGWVRQAPGKGLEYIGIISVGGFTYYASWAKGRFTISRDNSKNTVYLQMNSLRAEDTATYFCARDRHGGDSSGAFYLWGQGTLVTVSS
notes: Trispecific scDb-scFv; CD137 arm derived from 38-27-A11 sc03
- koff (Fc tagged human PD-L1): 4.3e-05 s⁻¹
- IC50 (ng/ml), activation of NF-kB reporter gene, HCC827 + IFNg, 6 h, with HSA [2]: 7.22 ng/mL
- IC50 (ng/ml), activation of NF-kB reporter gene, HCC827 + IFNg, 24 h, with HSA [2]: 5.51 ng/mL

B3: PRO1186 (other)
chain: DIQMTQSPSSLSASVGDRVTITCQASQSIGTYLAWYQQKPGKAPKLLIYRAFILASGVPSRFSGSGSGTDFTLTISSLQPEDFATYYCQSNFYSDSTTIGPNAFGTGTKVTVLGGGGGSQVQLQESGPGLVKPSETLSLTCKVSGFSFSNSYWICWIRQPPGKGLEWIGCTFVGSSDSTYYANWAKGRVTISVDSSKNQFSLKLSSVTAADTAVYYCARHPSDAVYGYANNLWGQGTLVTVSSGGGGSGGGGSGGGGSGGGGSDIQMTQSPSSLSASVGDRVTITCQASQSINNVLAWYQQKPGKAPKLLIYRASTLASGVPSRFSGSGSGTDFTLTISSLQPEDFATYYCQSSYGNYGDFGTGTKVTVLGGGGGSQVQLQESGPGLVKPSETLSLTCKVSGFSFNSDYWIYWIRQPPGKGLEWIGSIYGGSSGNTQYASWAQGRVTISVDSSKNQFSLKLSSVTAADTAVYYCARGYVDYGGATDLWGQGTLVTVSSGGGGSGGGGSVVMTQSPSSLSASVGDRVTITCQASQIISSRSAWYQQKPGQPPKLLIYQASKLASGVPSRFSGSGSGTDFTLTISSLQPEDFATYYCQCTYIDSNFGAFGGGTKLTVLGGGGGSGGGGSGGGGSGGGGSEVQLVESGGGLVQPGGSLRLSCAASGFSFSSSYWICWVRQAPGKGLEWVGCVFTGDGTTYYASWAKGRFTISRDNSKNTVYLQMNSLRAEDTATYFCARPVSVYYYGMDLWGQGTLVTVSS
notes: Trispecific scDb-scFv with a different anti-CD137 domain; also called PR01186
- kon [1]: 190000 M⁻¹ s⁻¹

B4: PRO1704 (38-27-A11 sc07) (scFv)
scFv: DIQMTQSPSSLSASVGDRVTITCQASQSISNRLAWYQQKPGKAPKLLIYSASTLASGVPSRFSGSGSGTDFTLTISSLQPEDFATYYCQSTYYGNDGNAFGCGTKVTVLGGGGGSGGGGSGGGGSGGGGSEVQLVESGGGLVQPGGSLRLSCAASGFSFSANYYPCWVRQAPGKCLEWIGCIYGGSSDITYDANWTKGRFTISRDNSKNTVYLQMNSLRAEDTAVYYCARSAWYSGWGGDLWGQGTLVTVSS
notes: VL-linker-VH, CDR graft with interdomain disulfide (VL-T141C)
- Kd [3]: 3.07 nM
- koff [3]: 0.00353 s⁻¹
- kon [3]: 1.15e+06 M⁻¹ s⁻¹
